Patent US20120077210A1 (COMMONWEALTH SCIENTIFIC AND INDUSTRIAL RESEARCH ORGANISATION, published 2012)

Target: T1, Odr10 labelled with GFP2 at the C-terminus (C. elegans)
T1 construct: Fusion protein expressed in S. cerevisiae Invsc1; Assayed in living yeast cells (BRET2) and as digitonin-solubilised crude membrane (co-immunoprecipitation); also called odr-10-GFP2; Odr10-GFP2
Test: co-immunoprecipitation with anti-GFP antibody from a mixture of solubilised membranes that expressed each fusion separately (control)
Procedure: Membrane protein solubilisation and immunoprecipitation procedures were modified according to the method described by Ayoub et al. (2002). Crude membrane was solubilised with 0.5% digitonin (Sigma) and this mixture was stirred for 3 h at 4° C. Non-solubilised membrane proteins were removed by centrifugation at 18,000×g for 30 mins at 4° C. The digitonin concentration was adjusted to 0.2% using cold Buffer B and the polyclonal anti-GFP antibodies (Sapphire Bioscience, Cat No 120-29000) were added to a final dilution of 1:1000. Immune complex formation was allowed to proceed for 12 h at 4° C. with gentle agitation and Protein A-agarose suspension (Sigma) was added to a final volume of 1:10 (agarose suspension:sample) for incubation for another 6 h with gentle agitation at 4° C. After centrifugation for 1 min at 5000×g, supernatant was decanted and the agarose beads washed five times with 0.5 ml of cold Buffer C (Buffer B+0.2% digitonin). Precipitates were analysed by assessing luciferase activity in a luminometer (BMGLabtech) using coelenterazine as substrate (Biosynth AG, Switzerland).
Oligomerisation of Odr-10 in the living yeast cells was confirmed by the pairwise expression of receptor-Rluc and -GFP² fusion, followed by precipitation using anti-green fluorescence protein antibodies and measuring co-immunoprecipitated luciferase activity. […]

B1: Odr10 labelled with Rluc at the C-terminus (receptor)
chain: MSGELWITLVDTADIVGVTLTFCVNIVLLGLLKTRGKNLGTYKYLMAFFSVFSIFYAIIEFILRPIMHIENTTFFLISRKRFNYSTKLGKINSAFYCACFATSFVVSGVHFVYRYFATCKPNLLRLFNLPTLLLWPLGCSVPVTMWASVSYFLYPDTEYTEAAVTNVLNNHYNWIKKENVSYIAYVYYQYENGVRHIYLKNLLGCFVHYFVMSMTFVVMFYCGYATWKTMNEHKDVSDRTRALQKQLFKALVLQTLIPTIFMYAPTGVMFIAPFFDVNLNANANFIVFCSFLYPGLDPLILILIIRDFRRTIFNFLCGKKNSVDESRSTTRANLSQVPTMTSKVYDPEQRKRMITGPQWWARCKQMNVLDSFINYYDSEKHAENAVIFLHGNAASSYLWRHVVPHIEPVARCIIPDLIGMGKSGKSGNGSYRLLDHYKYLTAWFELLNLPKKIIFVGHDWGACLAFHYSYEHQDKIKAIVHAESVVDVIESWDEWPDIEEDIALIKSEEGEKMVLENNFFVETMLPSKIMRKLEPEEFAAYLEPFKEKGEVRRPTLSWPREIPLVKGGKPDVVQIVRNYNAYLRASDDLPKMFIESDPGFFSNAIVEGAKKFPNTEFVKVKGLHFSQEDAPDEMGKYIKSFVERVLKNEQ
notes: Fusion protein expressed in S. cerevisiae Invsc1; Assayed in living yeast cells (BRET2) and as digitonin-solubilised crude membrane (co-immunoprecipitation); also called odr-10-Rluc; Odr10-Rluc
luciferase activity recovered relative to co-expressed odr-10-GFP^2 and odr-10-Rluc: < 20%
